Experimental data: patent US20210087238A1, “CELL PENETRATING PEPTIDES AND RELATED COMPOSITIONS AND METHODS” (Phylogica Limited, priority 2017, published 2021)

Molecular target: MDM2 (UniProt Q00987)
Assay: cell-based or functional assay

Sequence of UniProt Q00987 (Q00987 whole entry): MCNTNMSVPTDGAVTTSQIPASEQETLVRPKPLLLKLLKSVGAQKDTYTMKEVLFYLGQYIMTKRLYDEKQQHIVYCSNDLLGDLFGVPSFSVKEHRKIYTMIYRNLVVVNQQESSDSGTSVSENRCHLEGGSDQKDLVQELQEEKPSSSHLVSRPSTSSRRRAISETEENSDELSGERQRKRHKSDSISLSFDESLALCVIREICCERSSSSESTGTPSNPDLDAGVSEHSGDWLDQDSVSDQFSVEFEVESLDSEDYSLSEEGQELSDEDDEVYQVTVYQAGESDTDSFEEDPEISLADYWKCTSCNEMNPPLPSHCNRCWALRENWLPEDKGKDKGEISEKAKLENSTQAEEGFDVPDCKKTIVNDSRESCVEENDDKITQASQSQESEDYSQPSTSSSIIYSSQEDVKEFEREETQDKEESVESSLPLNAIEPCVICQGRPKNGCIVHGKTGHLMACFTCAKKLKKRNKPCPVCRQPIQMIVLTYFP

Question: For TAT_^DPMIα (peptide), which IC50, viability of T47D cells after 48 h (resazurin reduction) is on record?
Answer: 36.6 µM
